Test results from publication PMC10434305.
Where two headings read alike, the source gives them in different places.

How the values were obtained:
[1] = target: Arp3 L117C, C408A, C189A, C307A (subunit of human Arp2/3 complex for the crosslinking assay) (human) (UniProt P61158); experiment: cross-linking
[2] = target: Arp3 L117C, C408A, C189A, C307A (subunit of human Arp2/3 complex for the crosslinking assay) (human) (UniProt P61158); experiment: cross-linking; remark: listed apart in the source
[3] = target: Arp3 L117C, C408A, C189A, C307A (subunit of human Arp2/3 complex for the crosslinking assay) (human) (UniProt P61158); experiment: cross-linking; remark: listed apart in the source
[4] = target: Skeletal α-actin, monomeric (G-actin) (UniProt P68135); experiment: SEC

“Arp2 L199C (subunit of human Arp2/3 complex for the crosslinking assay) (from UniProt P61160 1-394) (natural protein)” showed a crosslinked fraction at plateau [1] of 14%, a crosslinked fraction at plateau [2] of 34% and a crosslinked fraction at plateau [3] of 34%.
For “CapZ-CA hybrid heterodimer (CapZα-CA, CapZβ-CA) (from UniProt P52907;Q91YD9;P47756) (complex)”, the stoichiometry N (CapZ-CA:actin) [4] was 1.
